Patent publication US20240383982A1 (Genmab, published 2024)

T1: mouse (Mus musculus) B7H4, full length, on HEK-293F cells (mouse, UniProt Q7TSP5 25-257)
T1 construct: Uniprot Q7TSP5; also called mouse B7H4
T1 sequence: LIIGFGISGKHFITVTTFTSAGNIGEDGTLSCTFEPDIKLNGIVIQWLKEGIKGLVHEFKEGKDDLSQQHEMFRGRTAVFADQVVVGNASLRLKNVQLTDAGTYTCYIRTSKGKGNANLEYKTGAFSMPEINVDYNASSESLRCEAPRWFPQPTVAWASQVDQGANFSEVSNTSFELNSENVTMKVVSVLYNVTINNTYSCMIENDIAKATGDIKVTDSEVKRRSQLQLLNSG

T2: human B7H4, full length, on cells (human, UniProt Q7Z7D3 25-282)
T2 construct: Uniprot Q7Z7D3; Used for transfected HEK cells and for the B7H4-expressing human tumor cell lines (endogenous B7H4); also called VTCN1
T2 sequence: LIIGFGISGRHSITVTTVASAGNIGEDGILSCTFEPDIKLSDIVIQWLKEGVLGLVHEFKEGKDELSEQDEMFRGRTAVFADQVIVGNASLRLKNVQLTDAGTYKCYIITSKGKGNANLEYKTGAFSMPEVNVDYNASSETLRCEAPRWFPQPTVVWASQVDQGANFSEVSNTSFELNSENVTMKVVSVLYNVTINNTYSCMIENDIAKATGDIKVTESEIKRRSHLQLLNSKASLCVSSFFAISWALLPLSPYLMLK

T3: rat (Rattus norvegicus) B7H4, full length, on HEK-293F cells (rat, UniProt Q501W4 25-257)
T3 construct: Uniprot Q501W4; also called rat B7H4
T3 sequence: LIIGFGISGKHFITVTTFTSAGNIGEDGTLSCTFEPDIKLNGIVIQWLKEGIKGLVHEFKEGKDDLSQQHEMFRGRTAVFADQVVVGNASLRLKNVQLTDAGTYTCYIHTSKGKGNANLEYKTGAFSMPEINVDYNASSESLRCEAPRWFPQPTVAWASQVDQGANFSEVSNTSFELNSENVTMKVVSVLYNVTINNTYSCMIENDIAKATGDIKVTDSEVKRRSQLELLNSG

T4: cynomolgus monkey (Macaca fascicularis) B7H4 transcript 1, full length, on HEK-293F cells (cynomolgus monkey, UniProt Q7Z7D3 25-282 (human entry))
T4 construct: Uniprot A0A2K5U6P5; also called cynomolgus monkey B7H4; cynomolgus B7H4
T4 chain: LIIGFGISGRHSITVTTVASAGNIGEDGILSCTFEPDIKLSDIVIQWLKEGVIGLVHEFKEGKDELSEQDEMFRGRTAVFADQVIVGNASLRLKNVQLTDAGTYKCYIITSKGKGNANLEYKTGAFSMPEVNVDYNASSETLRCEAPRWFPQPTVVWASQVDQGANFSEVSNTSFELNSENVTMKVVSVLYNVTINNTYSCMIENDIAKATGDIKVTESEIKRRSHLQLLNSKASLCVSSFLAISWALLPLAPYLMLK

T5: dog (Canis familiaris) B7H4, full length, on HEK-293F cells (dog, UniProt Q7Z7D3 25-282 (human entry))
T5 construct: Uniprot F1P8R9; also called dog B7H4
T5 chain: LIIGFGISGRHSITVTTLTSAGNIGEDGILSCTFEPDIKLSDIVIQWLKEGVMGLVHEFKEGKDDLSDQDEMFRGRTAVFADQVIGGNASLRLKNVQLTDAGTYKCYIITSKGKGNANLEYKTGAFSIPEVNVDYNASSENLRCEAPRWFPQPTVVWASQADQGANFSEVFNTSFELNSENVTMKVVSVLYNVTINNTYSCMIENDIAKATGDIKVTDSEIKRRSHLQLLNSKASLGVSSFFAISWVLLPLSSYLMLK


Experiments:
[1] = target: T1, mouse (Mus musculus) B7H4, full length, …; assay: flow cytometry, HEK-293F cells transiently transfected with mouse B7H4, PE anti-human IgG F(ab')2 [panel Mouse B7H4]
Method: (§1) Cells (3×10⁴ cells/well) were incubated in polystyrene 96-well round-bottom plates (Greiner bio-one, cat. no. 650180) with serial dilutions of antibodies (ranging from 0.000458 to 30 μg/mL in 4-fold dilution steps) in 100 μL PBS/0.1% BSA/0.02% azide (staining buffer) at 4° C. for 30 min. Experiments were performed in technical duplicate. After washing twice in staining buffer, cells were incubated in 50 μL secondary antibody at 4° C. for 30 min. As a secondary antibody, R-Phycoerythrin (PE)-conjugated goat-anti-human IgG F(ab′)₂ (1:500 in FACS buffer; Jackson ImmunoResearch Laboratories, Inc., West Grove, PA, cat. no. 109-116-098), was used. Cells were washed twice in staining buffer, re-suspended in 30 μL FACS buffer containing Topro-3 (1:10,000 dilution) and analyzed on an iQue Screener (Intellicyt Corporation, USA). Binding curves were analyzed using non-linear regression (sigmoidal dose-response with variable slope) using GraphPad Prism V7.02 software (GraphPad Software, San Diego, CA, USA).

[2] = target: T2, human B7H4, full length, on cells; assay: flow cytometry, HEK-293F cells transiently transfected with human B7H4, PE anti-human IgG F(ab')2 [panel Human B7H4]
Method: as §1

[3] = target: T3, rat (Rattus norvegicus) B7H4, full …; assay: flow cytometry, HEK-293F cells transiently transfected with rat B7H4, PE anti-human IgG F(ab')2 [panel Rat B7H4]
Method: as §1

[4] = target: T4, cynomolgus monkey (Macaca fascicularis) …; assay: flow cytometry, HEK-293F cells transiently transfected with cynomolgus monkey B7H4, PE anti-human IgG F(ab')2 [panel Cynomolgus monkey B7H4]
Method: as §1

[5] = target: T5, dog (Canis familiaris) B7H4, full …; assay: flow cytometry, HEK-293F cells transiently transfected with dog B7H4, PE anti-human IgG F(ab')2 [panel Dog B7H4]
Method: as §1

[6] = target: T4, cynomolgus monkey (Macaca fascicularis) …; assay: flow cytometry, HEK-293F cells transfected with cynomolgus monkey B7H4 [panel Cynomolgus monkey B7H4]
Method: as §1

[7] = target: T2, human B7H4, full length, on cells; assay: flow cytometry on MDA-MB-468 tumor cells [MDA-MB-468 left panel]
Method: as §1
Binding was analyzed by flow cytometry as described above.

Binder | binding result [1] | EC50 (read off the curve) [2] | binding result [3] | EC50 (read off the curve) [4] | binding result [5] | EC50 (read off the curve) [1] | EC50 (read off the curve) [6] | EC50 (read off the curve) [7] | EC50 (read off the curve) [3] | EC50 (read off the curve) [5] | binding result [6]
bsIgG1-huCD3-H101G-FEALxB7H4-C1-N52S-FEAR (bispecific antibody, also called bslgG1-huCD3-H101G-FEALxB7H4-C1-N52S-FEAR; BslgG1-huCD3-H101G-FEALxB7H4-C1-N52S-FEAR) heavy 1: not shown light 1: not shown heavy 2: QVQLQQWGAGLLKPSETLSLTCAVYGGSFSGYYWSWIRQPPGKGLEWIGEISHSGSTNYNPSLKSRVTISIDTSKNQFSLKLTSVTAADTAVFYCARGLFNWNFDSWGQGTLVTVSSASTKGPSVFPLAPSSKSTSGGTAALGCLVKDYFPEPVTVSWNSGALTSGVHTFPAVLQSSGLYSLSSVVTVPSSSLGTQTYICNVNHKPSNTKVDKRVEPKSCDKTHTCPPCPAPEFEGGPSVFLFPPKPKDTLMISRTPEVTCVVVAVSHEDPEVKFNWYVDGVEVHNAKTKPREEQYNSTYRVVSVLTVLHQDWLNGKEYKCKVSNKALPAPIEKTISKAKGQPREPQVYTLPPSREEMTKNQVSLTCLVKGFYPSDIAVEWESNGQPENNYKTTPPVLDSDGSFFLYSRLTVDKSRWQQGNVFSCSVMHEALHNHYTQKSLSLSPGK light 2: DIQMTQSPSSLSASVGDRVTITCRASQGIRNDLGWYQQKPGKAPKRLIYGASSLQSGVPSRFSGSGSGTEFTLTISSLQPEDFATYYCLQHNSYPRTFGQGTTVEIKRTVAAPSVFIFPPSDEQLKSGTASVVCLLNNFYPREAKVQWKVDNALQSGNSQESVTEQDSKDSTYSLSSTLTLSKADYEKHKVYACEVTHQGLSSPVTKSFNRGEC | binds | ~0.9 µg/mL | binds | ~0.6 µg/mL | binds | – | – | – | – | – | –
IgG1-B7H4-C1-N52S-FEAR (antibody, V domains shown, Full length human IgG1 with L234F, L235E, D265A, K409R (FEAR) heavy chain constant region and kappa light chain; bivalent, monospecific; also called IgG1-B7H4-C1-052S-FEAR) VH: QVQLQQWGAGLLKPSETLSLTCAVYGGSFSGYYWSWIRQPPGKGLEWIGEISHSGSTNYNPSLKSRVTISIDTSKNQFSLKLTSVTAADTAVFYCARGLFNWNFDSWGQGTLVTVSS VL: DIQMTQSPSSLSASVGDRVTITCRASQGIRNDLGWYQQKPGKAPKRLIYGASSLQSGVPSRFSGSGSGTEFTLTISSLQPEDFATYYCLQHNSYPRTFGQGTTVEIKR | – | ~0.3 µg/mL | – | ~0.2 µg/mL | – | ~0.3 µg/mL | ~0.1 µg/mL | ~1 µg/mL | ~0.3 µg/mL | ~0.3 µg/mL | –
IgG1-B7H4-C5-FEAR (antibody, V domains shown, Full length IgG1 FEAR, kappa; variable domains from US20190085080A1) VH: QLQLQESGPGLVKPSETLSLTCTVSGGSIKSGSYYWGWIRQPPGKGLEWIGNIYYSGSTYYNPSLRSRVTISVDTSKNQFSLKLSSVTAADTAVYYCAREGSYPNQFDPWGQGTLVTVSS VL: EIVMTQSPATLSVSPGERATLSCRASQSVSSNLAWYQQKPGQAPRLLIYGASTRATGIPARFSGSGSGTEFTLTISSLQSEDFAVYYCQQYHSFPFTFGGGTKVEIKR | – | – | – | – | – | – | – | ~0.2 µg/mL | – | – | binds
